Laboratory results published in PMC13342644, “Structural basis for transport and inhibition of nucleotide sugar transport in pathogenic fungi” (Nature Communications, 2026).
Entries after “also recorded” stand apart in the source; their conditions may differ.

T1: C. albicans Vrg4 (CaVrg4) (Candida albicans, UniProt Q5A477)
T1 sequence (Q5A477 34-371 limits assumed): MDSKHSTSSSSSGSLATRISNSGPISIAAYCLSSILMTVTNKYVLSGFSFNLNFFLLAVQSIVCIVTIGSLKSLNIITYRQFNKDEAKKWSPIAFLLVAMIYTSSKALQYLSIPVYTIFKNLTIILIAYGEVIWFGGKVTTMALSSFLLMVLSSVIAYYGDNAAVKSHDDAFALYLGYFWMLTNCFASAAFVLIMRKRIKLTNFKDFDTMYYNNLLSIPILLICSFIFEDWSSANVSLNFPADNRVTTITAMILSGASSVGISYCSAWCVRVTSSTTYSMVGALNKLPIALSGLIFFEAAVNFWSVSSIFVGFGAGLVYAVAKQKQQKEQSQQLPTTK


Legend:
[1] = biological target: T1, C. albicans Vrg4 (CaVrg4); test: Liposome 3H-GMP transport assay in the presence of nanobodies; type: biochemical
Protocol: (§1) CaVrg4 was reconstituted into liposomes using the dilution method into preformed lipid vesicles. Chloroform was removed from the lipids using a rotary evaporator to obtain a thin film. The lipids were washed twice in pentane and then resuspended at 10–20 mg ml^−1 in lipid buffer (20 mM HEPES, pH 7.5, 100 mM KCl). These lipid vesicles were frozen and thawed twice in liquid nitrogen, then stored at −80 °C until use. For reconstitution, the lipids were thawed and then extruded first through a 0.8-μm filter and then through a 0.4-μm filter. […] After this time, the protein–lipid mix was diluted rapidly into 65 mL of assay buffer (20 mM HEPES, pH 7.5, 50 mM KCl, 2 mM MgSO4) and the proteoliposomes were collected through centrifugation at >200,000 x g for 2 h. To remove trace detergent, the proteoliposomes were dialysed overnight against a large volume (3 L) of assay buffer. After dialysis, the proteoliposomes were collected and resuspended in assay buffer to a final protein concentration of 0.5 μg μl^−1, and then subjected to two rounds of freeze–thawing in liquid nitrogen before storage at −80 °C. The amount of protein reconstituted into the lipids was quantified by SDS–PAGE and densitometry. […] The final buffer was PBS. For all the assays, the lipid mix consisted of POPE:POPG:Ecoli Polar lipid Extract:EggPC in a 27:7:9:1 ratio.
(§2) All assays were performed at 30 °C.

[2] = tested on: yeast strain NDY5 overexpressing C. albicans Vrg4; test: Hygromycin B-based in vivo viability (growth) assay; type: cell-based, Saccharomyces cerevisiae; conditions: NDY5 + C. albicans Vrg4, in the presence of hygromycin B
Protocol: The yeast was grown in minimal media to select for the plasmids, and the expression of the nanobody was induced with galactose. After overnight galactose induction, the yeast culture was diluted, and growth was monitored over 30 h.
An overnight culture was grown in minus -Leu-Ura medium containing 2% glucose and then diluted 1:10 into medium containing 2% lactate. After 9 h of growth, 2% galactose was added, and the cultures were left overnight. […] The cultures were grown at 30 °C with shaking, and growth was monitored over the next 30 h by measuring the OD.

S. cerevisiae Vrg4 = test: Liposome 3H-GMP transport assay in the presence of nanobodies (specificity control); type: biochemical, Saccharomyces cerevisiae; conditions: Vrg4 from S. cerevisiae
C. auris Vrg4 = test: as above; type: biochemical; conditions: Vrg4 from Candida auris
Protocol: as §1, §2

Molecule	Effect on transport function (uptake of 3H GMP into liposomes), in words [1]	Growth / sensitivity to hygromycin B, in words [2]	Detectable inhibition, in words (S. cerevisiae Vrg4)	Detectable inhibition, in words (C. auris Vrg4)
NB4: inhibitory nanobody specific for C. albicans Vrg4, stabilises the cytoplasmic-facing state (antibody, V domains shown) VH: QVQLVESGGGLVQAGGSLRLSCAASGRTFRSYTLGWFRQAPGKEREFVAAIKWSTDTTYYADSVKGRFTISGDNAKNTVYLQMNSLKPEDTAVYFCAARSLSTVIAGPEIPWPYNSWGQGTQVTVSS	full inhibition	sensitivity of this strain to HyB manifests; also recorded: slow growth phenotype	neither NB3 nor NB4 showed any detectable inhibition	neither NB3 nor NB4 showed any detectable inhibition
NB3: inhibitory nanobody specific for C. albicans Vrg4, stabilises the Golgi-facing state (antibody, V domains shown) VH: QVQLVESGGGLVQPGGSLRLSCAASGSISEINVMGWYRQAPGKQRELVARITTGGSTNYADSVKGRFTISRDNAKNTVYLQMNSLKPEDTAVYMCNAHRRVVMEWGPLGYDYWGQGTQVTVSS	full inhibition	sensitivity of this strain to HyB manifests; also recorded: slow growth phenotype	neither NB3 nor NB4 showed any detectable inhibition	neither NB3 nor NB4 showed any detectable inhibition
